In US20080305501A1 one finds osteoclast formation; lowest TNFα concentration still active data, which are given here for 1 substance.

The assay deals with chimeric receptor comprising mouse TNFR1 external domain (residues 1-210 of SEQ ID NO:1) linked to the transmembrane and intracellular domains of mouse RANK (residues 210-625 of SEQ ID NO:2) (mouse). In words: cell-based or functional assay.
Sequence of chimeric receptor comprising mouse TNFR1 external domain (residues 1-210 of SEQ ID NO:1) linked to the transmembrane and intracellular domains of mouse RANK (residues 210-625 of SEQ ID NO:2) (mouse) (chain, as listed by the source mutant): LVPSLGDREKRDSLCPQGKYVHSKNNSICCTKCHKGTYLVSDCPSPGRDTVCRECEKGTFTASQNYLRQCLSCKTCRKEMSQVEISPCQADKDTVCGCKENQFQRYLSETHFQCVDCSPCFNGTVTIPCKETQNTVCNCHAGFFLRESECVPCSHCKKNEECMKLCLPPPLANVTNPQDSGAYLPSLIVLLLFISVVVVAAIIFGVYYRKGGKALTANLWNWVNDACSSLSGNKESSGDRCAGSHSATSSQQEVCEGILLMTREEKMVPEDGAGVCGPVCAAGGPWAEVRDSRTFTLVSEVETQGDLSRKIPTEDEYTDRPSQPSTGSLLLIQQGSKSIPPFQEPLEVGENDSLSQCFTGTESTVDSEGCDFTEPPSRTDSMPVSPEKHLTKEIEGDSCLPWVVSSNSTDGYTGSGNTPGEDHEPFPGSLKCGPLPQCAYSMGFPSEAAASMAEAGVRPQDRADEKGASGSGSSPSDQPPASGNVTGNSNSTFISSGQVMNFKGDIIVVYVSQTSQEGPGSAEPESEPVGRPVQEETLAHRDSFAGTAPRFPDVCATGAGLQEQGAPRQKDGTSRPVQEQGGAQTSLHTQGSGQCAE

With “Recombinant mouse TNFα (410-TRNC-050, R&D Systems) (from UniProt P06804 80-235) (ligand)”, the osteoclast formation; lowest TNFα concentration still active stood at 1 ng/mL.
